Results published in patent publication US10280218B2, “Antibodies binding to BMP4, and uses thereof” (ACADEMISCH MEDISCH CENTRUM, priority 2014, dated 2019).
Entries after “also recorded” stand apart in the source; their conditions may differ. One block for each molecule: values may come before it.

Assays:
BMP4 = biological target: T1, BMP4 (Homo sapiens, UniProt P12644); assay: Surface plasmon resonance (SPR), BMPs injected over VHH-coated chip; assay type: binding; parameters: purchased R&D systems; ka (BMP4): unit not given here; conditions: molecule coupled to chip
T1 sequence (P12644 293-408): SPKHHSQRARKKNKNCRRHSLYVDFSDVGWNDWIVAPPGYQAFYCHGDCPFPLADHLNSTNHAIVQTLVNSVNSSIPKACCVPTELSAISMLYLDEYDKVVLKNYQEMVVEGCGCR
Protocol: To confirm their BMP specificities and to elucidate their binding affinities, our VHHs were subjected to surface plasmon resonance (SPR) analysis. In a first set of experiments, controls and VHHs (either as monomers or dimers) were coupled to SPR chips and the measurement of BMP affinities was obtained by injecting the different BMPs to the plate.
Serial dilutions (2.0-10 μg/ml) of purified VHHs were spotted on an amine-specific SensEye gold-film gel-type SPRchip (Ssens), using a Continuous Flow Microspotter (Wasatch Microfluidics, Salt Lake City, Utah, United States) as described (Lokate et al., 2007). BMP binding was analyzed on an IBIS MX96 (IBIS Technologies, Enschede, The Netherlands) instrument by performing injections with dilution series (0.05-2.0 μg/ml) of recombinant BMPs on the VHH-coated chip. In each injection, BMPs were injected and incubated for 8 min, followed by 15 min thorough washing with binding buffer (PBS+0.05% Tween20+0.05% sodium azide) to measure dissociation. Epitope binning was done by injecting VHH dilutions (2.0 μg/ml) over the chip, immediately after the dissociation step. Injections with blank binding buffer were used as reference. After each concatenated injection, the chip was regenerated with 10 mM glycine-HCl, pH 2.0. Experimental data were processed with SPRintX software (IBIS Technologies) and kinetic parameters were determined using Scrubber2 software (BioLogic Software, Campbell, ACT, Australia). Binding constants were obtained by global fitting to a one-site binding model.

human BMP4 = assay: BMP activity luciferase reporter assay (BRE-luciferase, ID1 promoter) in C2C12 cells; assay type: cell-based, mouse
Protocol: (§1) One of the most studied BMP target genes is the Inhibitor of Differentiation 1 (ID1). This is an immediate early gene that is activated by binding of the phosphorylated SMADs to its promoter region (López-Rovira et al., 2002). Thus, we employed the BMP-responsive C2C12 cells, which are stably transfected with the BRE-luciferase vector containing the BMP-Responsive-Element (the mouse ID1 promoter) cloned into the pGL3 luciferase vector (Zilberberg 2007). […] C2C12 cells were treated with the different BMPs with or without our VHHs or human Noggin at a concentration of 5 μg/ml. Luciferase activity was measured after 16 hours incubation. Most of the transcriptional data is in concordance with the results obtained with the phosphorylation of SMAD1/5/8.
(§2) C2C12 cells were plated in 96-well plates at 5×10^3 cells/well and cells were allowed to attach overnight. 100 μl of DMEM with 0.1% BSA were added in each well. VHH antibodies and human Fc-Noggin at the indicated concentrations were added at the same time. Wells with unstimulated cells were added as controls. Cells were treated in triplicate with the BMPs at the indicated concentrations for 16 hours. Luciferase activity was measured by adding 100 μl of luciferase substrate solution from the Bright-Glo™ Luciferase Assay System (Promega Benelux, Leiden, The Netherlands). After 3 minutes of incubation, luciferase activity was measured with Synergy HT Multi-Mode Microplate Reader (Biotek, Winooski, Vt., United States). Luciferase values were normalized to background activity (activity of wells with no cells) and represented as ratio to the activity of BMP-stimulated cells.
(§3) To evaluate the extent of this increase in potency, the IC50 of the different VHHs were determined in a dose-dependent inhibition assay in C2C12 cells (FIG. 25). C2C12 cells were plated in 96-well plates at 5×10^3 cells/well and cells were allowed to attach overnight 100 μl of DMEM with 0.1% BSA were added in each well. VHH antibodies were added at the indicated concentrations at the same time as 5 ng/ml BMP4 (FIG. 25A-B, D) or 50 ng/ml of BMP2 (FIG. 25C,D). Luciferase activity was measured after 16 hours. Values are represented as ratio to the activity of BMP-stimulated cells. […] However, its effects were more striking for BMP2 rather than BMP4 inhibition. […] The IC50 values for BMP4 inhibition observed in our VHHs are considerably lower than those observed for anti-BMP4 commercially available from R&D (Katagiri et al 1994) and those described in WO_2008/030611.
(§4) C2C12 cells were cultured in 96-well plates at 5×10^3 cells/well. After overnight attachment cells were stimulated with 10 ng/ml hBMP4 (Cat No. 314-BP-020; R&D Systems), 50 ng/ml hBMP2 (Cat No. 355-BM-010; R&D Systems), 200 ng/ml hBMP5 (Cat No. 615-BMC-020; R&D Systems), 50 ng/ml hBMP6 (Cat No. 506-BP-020; R&D Systems), 200 ng/ml hBMP7 (Cat No. 354-BP-010; R&D Systems), 25 ng/ml hBMP9 (Cat No. 3209-BP-010; R&D Systems), 25 ng/ml hBMP10 (Cat No. 2926-BP-025; R&D Systems), 50 ng/ml hBMP12 (Cat No. 779-G7-010; R&D Systems) and with or without VHH antibodies: C4C4 and C8C8 at 500 ng/ml; natural antagonist: mNoggin (Cat No. 1967-NG-025; R&D Systems), hNoggin (Cat No. 6057-NG; R&D Systems) and mGremlin (cat#956-GR-050; R&D Systems) at 500 ng/ml; chemical antagonist: 0.5 μM LDN-193189 (Cat No. 11802; Cayman Chemical) and 0.2 μM DMH1 (Cat No. 57146; Selleckchem).
(§5) VHH efficacy was evaluated by stimulating cells with 10 ng/ml of hBMP4 and 50 ng/ml of hBMP2, with and without increase concentrations (from 0.1-10 μg/ml) of VHH and anti-BMP4 antibodies: clone 66119, clone 3H2, clone M912262, clone PA354-16.1.1, Clone EPR6211, and anti-BMP4 (ab39973). […] Unstimulated cells were used as controls and wells with no cells used to normalize the background activity. […]

BMP2 = biological target: T2, BMP2 (Homo sapiens, UniProt P12643); assay: as above; assay type: cell-based, mouse
T2 sequence (P12643 283-396): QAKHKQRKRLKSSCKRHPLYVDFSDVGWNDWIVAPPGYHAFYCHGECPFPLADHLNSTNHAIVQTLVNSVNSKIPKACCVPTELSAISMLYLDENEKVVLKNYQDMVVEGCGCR
Protocol: as §1, §2, §3, §4, §5

ka (BMP4) (BMP4): 34.6
kd (BMP4) (BMP4): 3.4 10^−5 sec^−1
inhibition of BMP2-mediated transcriptional activation by dimers (BMP2; BMP2 50 ng/ml, 16 hours, increasing concentrations up to 5 μg/ml): inhibit; also recorded: similar
B1: C8E7: E7 linked to C8, hetero-dimer VHH bihead (protein)
chain: EVQLVESGGGLVQAGGSLRLSCAASGRTFRINDMGWYRQAPGKSRDMVARITSGGNTNYADSVKGRFTISRDNAKNTVYLQMNSLKPEDTAVYYCNADGLRFDSTRYRPFDSWGQGTQVTVSSGGGGSGGGGSEVQLVESGGGLVQAGGSLRLSCAASGSIRGFVAMAWYRQAPGKQREWVATVTNGGTLYGDSVKGRFTGSRDNAKNTVYLQMNSLKPEDTAVYYCALRQIGASGYDYWGQGTQVTVSS
inhibition of BMP4-mediated transcriptional activation by dimers (human BMP4; BMP4 5 ng/ml, 16 hours, increasing concentrations): inhibit; also recorded: similar

kd (BMP4) (BMP4): 3.9 10^−5 sec^−1
IC50 (human BMP4; 10 ng/ml hBMP4, 16 hours, read-out: IC50, neutralization of BMP4): ~0.54 nM
inhibition of BMP-2 signals, comparison of inhibitors (BMP2; 50 ng/ml hBMP2, 16 h, VHH, Noggin, Gremlin 500 ng/ml, LDN 0.5 μM, DMH1 0.2 μM): greatly inhibit
IC50 (BMP2; 50 ng/ml hBMP2, 16 hours, read-out: IC50, neutralization of BMP2): ~1.6 nM
B2: hNoggin (protein)
chain: QHYLHIRPAPSDNLPLVDLIEHPDPIFDPKEKDLNETLLRSLLGGHYDPGFMATSPPEDRPGGGGGAAGGAEDLAELDQLLRQRPSGAMPSEIKGLEFSEGLAQGKKQRLSKKLRRKLQMWLWSQTFCPVLYAWNDLGSRFWPRYVKVGSCFSKRSCSVPEGMVCKPSKSVHLTVLRWRCQRRGGQRCGWIPIQYPIISECKCSC
inhibition of BMP4-derived signals, comparison of inhibitors (human BMP4; 10 ng/ml hBMP4, 16 h, VHH, Noggin, Gremlin 500 ng/ml, LDN 0.5 μM, DMH1 0.2 μM): greatly inhibit
